Test results published in the RNAGym collection of RNA variant scans (doi:10.7554/elife.80360).

B1: HDV Ribozyme (parent)
chain: GGCCGGCAUGGUCCCAGCCUCCUCGCUGGCGCCGGCUGGGCAACAUUCCGAGGGGACCGUCCCCUCGGUAAUGGCGAAUGGGACCCA

Variants of: B1
Assay: self-cleavage, relative activity (ratio to wild type); higher = more cleavage; co-transcriptional

Variant | self-cleavage
C26U C48U | 1.01
C26U C48G | 1.07
C26U C48A | 0.917
C26U G80C | 0.554
C26U A56C | 1.12
C26U A56U | 1.12
C26A U79A | 0.997
C26A U79C | 0.469
C26G A71U | 0.612
C26G A71G | 0.475
C26G A71C | 0.85
C26G C84G | 0.615
G25U U65C | 0.237
G25U U65A | 0
C26G U65A | 0.655
C26G C86G | 0.886
C26G C86U | 0.831
G25U G81A | 0.124
G25U G81C | 0.0923
C26A U60G | 1.2
C26A U60C | 0.81
C26G G81A | 0.77
C26G G81C | 0.499
C26A U27A | 0.749

Variant | self-cleavage
C26A U69G | 1.15
C26A U69C | 0.988
C26G C62G | 0.516
C26A G34U | 0.683
C26A G34C | 0.111
C26A C58U | 0.981
G25U C48G | 0
G25U C64G | 0.154
G25U C64U | 0.113
C26A G67A | 1.01
C26A G38C | 0.122
C26A G38A | 0.153
G25U G80A | 0.117
C26G U79A | 0.692
C26G U79C | 0.458
C26G U79G | 0.8
C26G C30U | 0.415
C26G C30A | 0.623
G25U C58A | 0.244
C26G U60A | 1.05
C26G U60C | 1.31
C26U C44A | 1.03
C26U C44U | 1.01
C26U C41U | 1.06

Variant | self-cleavage
G25U G54A | 0.086
C26U A45G | 0.831
C26U G73U | 0.502
C26A A77C | 0.266
C26A A77U | 0.597
C26A A43U | 0.527
C26G G40U | 0.9
C26G G40A | 0.912
C26G C57G | 1.04
G25U A70G | 0.0875
G25U A70U | 0.0852
C26G G53A | 1.02
C26G A51U | 0.95
C26G A51G | 0.997
C26A U47C | 0.646
C26G G80U | 0.261
C26G G80A | 0.789
G25U U46A | 0.0852
G25U U46G | 0.199
G25U U46C | 0
C26U A70C | 1.08
C26A G73U | 0.415
C26G C44G | 0.554
C26G C44A | 0.554

Variant | self-cleavage
C26A A87C | 0.944
C26A A87G | 0.864
C26U C58A | 1.03
C26U C58U | 1.16
C26U C58G | 0.831
G25U C44G | 0.249
C26G G73A | 0.57
C26G G73C | 0.492
C26A G82C | 0.342
C26A G82U | 0.317
C26A C36A | 0.143
C26A U72A | 0.692
C26U G59C | 0.935
C26U G59U | 0.881
C26U A83C | 0.95
C26G U46C | 1.15
C26A C44A | 0.914
C26A C44U | 0.95
G25U G29C | 0.106
G25U G67U | 0.305
C26A G81C | 0.193
C26A G81U | 0.519
C26A C33A | 0.161
C26A C33G | 0.317

Variant | self-cleavage
C26A C33U | 0.796
C26A G68A | 1.08
G25U C36G | 0.108
G25U C36A | 0.106
C26G G76A | 0.914
C26G G76C | 0.884
C26A C57G | 1.1
C26A C57A | 1.02
C26G G55U | 0.975
G25U G55C | 0.228
C26G G38U | 0.435
C26G G38C | 0.151
C26G C36G | 0.237
G25U C84A | 0.222
G25U C84U | 0.262
G25U C84G | 0.17
C26U C33A | 0.307
C26U G28C | 0.19
C26U G28U | 0.277
C26G A43C | 0.437
C26G A43U | 0.584
C26G C33U | 0.867
C26U C86U | 0.831
C26U C86A | 0.99

Variant | self-cleavage
C26U C86G | 1.14
C26A A71U | 0.785
C26A A78U | 0.269
G25U G35U | 0.147
C26U G50A | 1.07
C26G C41A | 1.04
C26A G40C | 0.601
C26A A42G | 0.665
C26A A42C | 0.227
C26A G76U | 1.05
C26A G76A | 1.03
C26A G76C | 1.08
C26U C32G | 0.125
C26U C32U | 0.799
C26U C32A | 0.256
C26A G53A | 0.845
C26A C41A | 1.17
C26G C63U | 0.743
C26G C63G | 0.653
C26G C63A | 0.748
G25U G38C | 0.0554
G25U G38U | 0.134
C26A A83U | 0.796
C26A A83G | 0.729

Variant | self-cleavage
C26A A83C | 0.752
C26U G35U | 0.641
C26U G35C | 0.288
C26U G82A | 0.769
G25U C32G | 0.0222
G25U C32A | 0.105
G25U C32U | 0.161
C26A G74A | 0.573
C26U G40A | 0.885
C26U G40C | 0.946
C26G G59A | 0.903
C26G G59C | 0.87
G25U G52U | 0.234
G25U G52A | 0.166
C26A G39A | 0.234
C26A G39C | 0
C26G U37A | 0.213
C26A U65A | 0.966
C26G G35U | 0.499
C26G G35A | 0.326
C26A C63A | 0.724
C26A C63U | 0.869
G25U G50U | 0.0361
C26U G34C | 0.224

Variant | self-cleavage
C26G U69G | 0.787
C26A G59C | 0.944
C26A G59U | 1.12
C26U G29C | 0.0959
C26U G29A | 0.332
C26A C62A | 1.15
C26U C75A | 0.154
C26U A51G | 0.95
G25U A77G | 0.145
C26G A42U | 0.449
C26G G50C | 0.997
C26G G50U | 1.05
C26G G82C | 0.499
C26U A43G | 0.745
C26U A43U | 0.708
C26G C48G | 1.02
C26G C48U | 0.877
C26U C64G | 1.1
C26U C64A | 0.979
G25U G82A | 0.0678
G25U G82C | 0.0755
C26G U27G | 0.208
C26G U27C | 0.795
C26G U27A | 0.516

Variant | self-cleavage
C26U G74C | 0.519
C26U G74A | 0.717
C26U G54A | 0.774
C26U G54U | 1.07
C26A G50C | 1.16
C26A G50U | 0.958
C26A C75A | 0.0415
G25U C41A | 0.125
C26U A87U | 1
C26U A87G | 1.04
C26U A87C | 0.953
C26G G67A | 0.696
C26G G29A | 0.208
C26G G29U | 0.119
C26A C64U | 1.13
C26A C64A | 1.02
G25U U37G | 0.0489
G25U U37C | 0.17
G25U G68C | 0.0791
G25U G68U | 0.225
C26G U47A | 0.87
C26G U47C | 0.95
C26G U47G | 1.08
G25U G74A | 0.0707

Variant | self-cleavage
G25U G74U | 0.0268
G25U G74C | 0.0308
C26G C64A | 0.554
C26G C64U | 0.99
C26A G52U | 0.798
C26A G52A | 1.06
C26A U46A | 0.77
C26A U46G | 0.86
C26G C75U | 0.262
C26G C75G | 0.227
C26A U37C | 1.13
C26A G29C | 0.104
G25U A83G | 0.0978
G25U A83U | 0.0791
C26U C84A | 1.15
C26U C84U | 1.05
G25U U47A | 0.161
G25U U47C | 0
G25U U79G | 0.0426
C26G A78U | 0.401
C26G A78G | 0.633
G25U C33G | 0.119
G25U C30U | 0.102
C26U G76A | 1.04

Variant | self-cleavage
C26U G76U | 0.963
C26A G55A | 0.888
C26A C49A | 1.11
C26G G68C | 1.07
C26G G68U | 0.686
C26U C63A | 0.969
C26U C63U | 0.943
C26U G67U | 0.686
G25U C61G | 0.0978
G25U C61U | 0.163
C26G A56C | 1.25
C26G A56U | 1.23
C26G C66U | 1.16
C26G C66G | 1.1
C26A A70U | 1.23
C26A C84G | 0.95
C26A C84U | 0.854
C26A C84A | 0.787
G25U A71C | 0.213
G25U A71U | 0.0396
C26U G55U | 0.929
C26U G55A | 1.05
C26U G55C | 0.954
C26U A42G | 0.902

Variant | self-cleavage
G25U A56U | 0.249
C26U A71C | 0.748
C26U A71U | 0.941
C26U A71G | 0.928
G25U U27C | 0.107
C26A C30G | 0.17
G25U G39A | 0.0963
G25U G39C | 0.0773
G25U G39U | 0.0302
C26U G39A | 0.599
C26U G39C | 0.475
C26U G39U | 0.936
G25U G40A | 0.111
C26U C61G | 1.19
C26U G52C | 0.9
C26G A87U | 0.976
C26G G28U | 0.0396
C26G G28C | 0.0504
G25U C26A | 0.217
G25U A87G | 0.163
C26U C66U | 1.02
C26G C32G | 0.203
C26G C32U | 0.743
C26G C32A | 0.326

Variant | self-cleavage
G25U C62G | 0.253
C26G A77G | 0.929
C26G A77U | 0.447
C26G U72C | 0.862
G25U C57U | 0.227
C26U G53U | 1.22
C26U G53A | 1.16
C26U G53C | 1.04
C26A C32U | 0.816
C26A C32A | 0.216
C26G G52A | 0.867
C26A G35A | 0.633
G25U C85U | 0.415
C26U G81C | 0.748
C26U C36A | 0
C26U C36G | 0.162
C26A A51U | 1.08
C26A A51C | 1.13
C26U C57U | 1.05
C26G C58A | 1.06
C26G C58G | 0.906
C26G C49G | 0.87
C26G C49U | 0.935
C26A C85G | 1.15

Variant | self-cleavage
C26A C85U | 0.942
C26A C85A | 0.997
G25U G53U | 0.145
C26G G34U | 0.525
G25U G28U | 0.0652
G25U G28C | 0.106
C26A C66G | 1.15
G25U C49G | 0
G25U C49A | 0.175
G25U C49U | 0.481
C26A C86G | 0.888
C26A C86U | 0.735
C26A C86A | 1.13
C26A C48U | 0.941
C26G G54U | 0.941
C26G G54C | 0.782
C26A A56G | 0.957
C26A A56C | 1.06
C26G A70G | 0.665
C26U A78G | 1.07
C26U A78U | 0.743
C26A G31U | 0.425
